Results published in patent publication US20100204104A1.

What was measured:
TGF-β1 [1] = target: TGF-β1 (UniProt P01137); assay: SPR (Biacore), TGF-β1 on chip, CHO-produced sRII-9Gly (lot 1) 1.2-90 nM injected, 1:1 model
TGF-β1 [2] = target: TGF-β1 (UniProt P01137); assay: SPR (Biacore), TGF-β1 on chip, HEK 293-produced sRII-9Gly 1.2-90 nM injected, 1:1 model
TGF-β3 [3] = target: T1, TGF-β3 (UniProt P10600); assay: SPR (Biacore), TGF-β3 on chip, CHO-produced sRII-9Gly (lot 1) 1.2-90 nM injected, 1:1 model
T1 sequence (looked up): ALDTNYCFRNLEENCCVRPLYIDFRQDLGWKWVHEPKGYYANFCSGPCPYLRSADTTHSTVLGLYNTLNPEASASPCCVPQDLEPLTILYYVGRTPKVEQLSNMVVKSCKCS

TGF-β1 [4] = target: TGF-β1 (UniProt P01137); assay: SPR (Biacore), TGF-β1 on chip, CHO-produced sRII-9Gly (lot 2) 1.2-90 nM injected, 1:1 model
TGF-β3 [5] = target: T1, TGF-β3; assay: SPR (Biacore), TGF-β3 on chip, CHO-produced sRII-9Gly (lot 2) 1.2-90 nM injected, 1:1 model
TGF-β3 [6] = target: T1, TGF-β3; assay: SPR (Biacore), TGF-β3 on chip, HEK 293-produced sRII-9Gly 1.2-90 nM injected, 1:1 model
TGF-β1 [7] = target: TGF-β1 (UniProt P01137); assay: cell-based or functional assay
TGF-β3 [8] = target: T1, TGF-β3; assay: cell-based or functional assay

UniProt P01137, sequence (P01137 279-390 limits assumed): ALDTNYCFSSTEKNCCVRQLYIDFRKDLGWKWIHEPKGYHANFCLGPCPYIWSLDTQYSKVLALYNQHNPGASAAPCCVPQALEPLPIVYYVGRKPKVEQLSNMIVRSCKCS

B1: sRII-9Gly fusion protein (receptor)
chain: IPPHVQKSVNNDMIVTDNNGAVKFPQLCKFCDVRFSTCDNQKSCMSNCSITSICEKPQEVCVAVWRKNDENITLETVCHDPKLPYHDFILEDAASPKCIMKEKKKPGETFFMCSCSSDECNDNIIFSEEYNTSNPDLHMGGGGGGGGGIDIPPHVQKSVNNDMIVTDNNGAVKFPQLCKFCDVRFSTCDNQKSCMSNCSITSICEKPQEVCVAVWRKNDENITLETVCHDPKLPYHDFILEDAASPKCIMKEKKKPGETFFMCSCSSDECNDNIIFSEEYNTSNPDL
Kd (TGF-β1 [1]): 6.3 nM | koff (TGF-β1 [1]): 0.00117 s⁻¹ | Kd (TGF-β1 [2]): 8.2 nM | koff (TGF-β1 [2]): 0.0011 s⁻¹ | Kd (TGF-β3 [3]): 5 nM | koff (TGF-β3 [3]): 0.00131 s⁻¹ | Kd (TGF-β1 [4]): 9.8 nM | koff (TGF-β1 [4]): 0.0011 s⁻¹ | Kd (TGF-β3 [5]): 6.8 nM | koff (TGF-β3 [5]): 0.00085 s⁻¹ | Kd (TGF-β3 [6]): 2.1 nM | koff (TGF-β3 [6]): 0.00034 s⁻¹ | IC50 (nM), A549/IL-11 cell bioassay, CHO-produced sRII-9Gly Lot 9 (TGF-β1 [7]): 0.02 nM | IC50 (nM), A549/IL-11 cell bioassay, CHO-produced sRII-9Gly Lot 10 (TGF-β1 [7]): 0.018 nM | IC50 (nM), A549/IL-11 cell bioassay, CHO-produced sRII-9Gly Lot 11 (TGF-β1 [7]): 0.014 nM | IC50 (nM), A549/IL-11 cell bioassay, CHO-produced sRII-9Gly Lot 12 (TGF-β1 [7]): 0.015 nM | IC50 (nM), A549/IL-11 cell bioassay, CHO-produced sRII-9Gly Lot 13 (TGF-β1 [7]): 0.016 nM | IC50 (nM), A549/IL-11 cell bioassay, sRII-9Gly Lot 4 (TGF-β1 [7]): 0.039 nM | IC50 (nM), A549/IL-11 cell bioassay, sRII-9Gly Lot 5 (TGF-β1 [7]): 0.053 nM | IC50 (nM), A549/IL-11 cell bioassay, sRII-9Gly Lot 6 (pH 7.0) (TGF-β1 [7]): 0.054 nM | IC50 (nM), A549/IL-11 cell bioassay, sRII-9Gly Lot 7 (pH 8.5) (TGF-β1 [7]): 0.062 nM | IC50 (nM), A549/IL-11 cell bioassay, sRII-9Gly Lot 8 (pH 9.0) (TGF-β1 [7]): 0.047 nM | IC50 (ng/ml), A549/IL-11 cell bioassay, sRII-9Gly Lot 4 (TGF-β1 [7]): 1.34 ng/mL | IC50 (ng/ml), A549/IL-11 cell bioassay, sRII-9Gly Lot 5 (TGF-β1 [7]): 1.8 ng/mL | IC50 (ng/ml), A549/IL-11 cell bioassay, sRII-9Gly Lot 6 (pH 7.0) (TGF-β1 [7]): 1.82 ng/ml | IC50 (ng/ml), A549/IL-11 cell bioassay, sRII-9Gly Lot 7 (pH 8.5) (TGF-β1 [7]): 2.12 ng/ml | IC50 (ng/ml), A549/IL-11 cell bioassay, sRII-9Gly Lot 8 (pH 9.0) (TGF-β1 [7]): 1.59 ng/ml | IC50 (nM), A549/IL-11 cell bioassay, CHO-produced sRII-9Gly Lot 9 (TGF-β3 [8]): 0.035 nM | IC50 (nM), A549/IL-11 cell bioassay, CHO-produced sRII-9Gly Lot 10 (TGF-β3 [8]): 0.29 nM | IC50 (nM), A549/IL-11 cell bioassay, CHO-produced sRII-9Gly Lot 11 (TGF-β3 [8]): 0.008 nM | IC50 (nM), A549/IL-11 cell bioassay, CHO-produced sRII-9Gly Lot 12 (TGF-β3 [8]): 0.07 nM | IC50 (nM), A549/IL-11 cell bioassay, CHO-produced sRII-9Gly Lot 13 (TGF-β3 [8]): 0.018 nM
